Test results from the supplement of paper PMC9876800.

System: peptide library, one residue held at a place counted from the S/T acceptor
Assay: relative phosphorylation of the sub-library (ratio to the mean residue at this position); higher = residue favoured
Details: human
In short: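 Relative sub-library phosphorylation, a ratio to the mean residue at that position, was obtained by phosphorimaging and densitometry of spots on streptavidin membranes. Before capture, purified recombinant kinases were incubated for 90 min under kinase-specific conditions with 50 μM biotinylated degenerate peptide sub-libraries and 50 μM ATP spiked with γ-32P-ATP. Each sub-library fixed one residue at one position around a central Ser/Thr.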

Sequence of TAOK2, construct: aa1-350 (Q9UL54 1-350, looked up): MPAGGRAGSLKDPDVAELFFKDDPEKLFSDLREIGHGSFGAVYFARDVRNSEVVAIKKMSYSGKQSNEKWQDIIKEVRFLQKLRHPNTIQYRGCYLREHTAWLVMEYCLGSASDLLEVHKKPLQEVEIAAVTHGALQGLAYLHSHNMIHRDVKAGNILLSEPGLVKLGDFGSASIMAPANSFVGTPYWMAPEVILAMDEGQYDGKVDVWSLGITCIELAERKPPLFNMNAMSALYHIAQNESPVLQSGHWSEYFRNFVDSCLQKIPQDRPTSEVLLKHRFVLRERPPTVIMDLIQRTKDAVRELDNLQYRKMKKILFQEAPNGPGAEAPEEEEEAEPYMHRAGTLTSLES
Sequence of TRPM7, construct: aa1158-1865 (Q96QT4 1158-1865, looked up): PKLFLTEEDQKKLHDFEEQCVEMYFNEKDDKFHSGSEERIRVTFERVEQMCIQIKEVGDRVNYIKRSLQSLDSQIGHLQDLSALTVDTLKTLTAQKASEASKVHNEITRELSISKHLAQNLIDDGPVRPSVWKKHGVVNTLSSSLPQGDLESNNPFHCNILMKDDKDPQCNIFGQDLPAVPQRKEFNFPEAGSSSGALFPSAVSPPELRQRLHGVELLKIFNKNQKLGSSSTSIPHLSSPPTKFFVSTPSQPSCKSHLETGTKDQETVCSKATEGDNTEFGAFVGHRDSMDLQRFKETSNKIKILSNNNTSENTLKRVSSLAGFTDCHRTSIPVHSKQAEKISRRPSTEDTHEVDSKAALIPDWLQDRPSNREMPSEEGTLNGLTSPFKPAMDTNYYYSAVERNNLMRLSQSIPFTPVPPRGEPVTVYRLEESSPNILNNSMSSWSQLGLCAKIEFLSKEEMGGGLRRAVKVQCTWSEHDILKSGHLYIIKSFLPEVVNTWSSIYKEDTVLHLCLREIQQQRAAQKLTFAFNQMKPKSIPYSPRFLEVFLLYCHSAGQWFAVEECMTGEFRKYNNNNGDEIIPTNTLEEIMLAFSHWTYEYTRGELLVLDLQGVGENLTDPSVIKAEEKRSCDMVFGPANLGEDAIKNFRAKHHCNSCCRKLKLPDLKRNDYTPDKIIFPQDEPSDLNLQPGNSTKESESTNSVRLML
Sequence of CLK2, construct: aa137-498 (P49760 137-498, looked up): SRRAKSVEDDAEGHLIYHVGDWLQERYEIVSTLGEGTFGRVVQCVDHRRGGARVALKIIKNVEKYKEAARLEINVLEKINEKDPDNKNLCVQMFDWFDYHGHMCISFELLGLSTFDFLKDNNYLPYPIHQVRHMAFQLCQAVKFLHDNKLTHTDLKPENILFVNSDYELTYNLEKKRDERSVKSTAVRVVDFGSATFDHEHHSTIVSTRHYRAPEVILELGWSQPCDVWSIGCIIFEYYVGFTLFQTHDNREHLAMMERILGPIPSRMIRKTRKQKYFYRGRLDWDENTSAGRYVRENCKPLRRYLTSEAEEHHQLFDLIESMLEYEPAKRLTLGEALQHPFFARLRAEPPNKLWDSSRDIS

CLK2, construct: aa137-498 (from UniProt P49760)
relative phosphorylation
Details	at +1	at +2	at +3	at +4	at -1	at -2	at -3	at -4	at -5
A fixed	0.537	1.38	0.558	0.879	1.16	1.94	0.571	1.2	1.14
D fixed	0.278	1.66	0.658	2.06	0.653	0.869	0.537	0.818	0.937
E fixed	1.31	2.38	0.614	2.16	0.846	1.79	0.471	0.964	0.865
F fixed	0.258	0.524	0.357	0.734	0.316	0.239	0.223	0.547	0.929
G fixed	0.82	1.31	0.908	0.989	1.78	1.51	0.615	1.42	1.23
H fixed	0.56	0.949	0.851	0.93	0.812	0.538	0.627	0.906	1.05
I fixed	0.388	0.352	0.246	0.491	0.194	0.159	0.176	0.441	0.412
K fixed	0.663	0.989	2.22	1.03	2.09	1.06	2.11	1.82	2.18
L fixed	0.433	0.565	0.396	0.645	0.416	0.266	0.209	0.485	0.478
M fixed	0.872	0.633	0.332	0.764	0.614	0.328	0.277	0.707	0.54
N fixed	0.464	0.968	0.95	1.18	1.07	0.522	0.473	0.897	1.05
P fixed	7.13	1.76	2.02	0.754	2.01	0.616	0.523	1.29	0.976
Q fixed	1.05	1.02	0.772	1.28	1.28	0.824	0.64	1.07	0.879
R fixed	0.767	1.08	5.17	1.12	2.29	5.66	8.88	2.84	2.51
V fixed	0.804	0.483	0.322	0.695	0.465	0.2	0.222	0.521	0.604
W fixed	0.296	0.468	0.305	0.626	0.467	0.219	0.219	0.491	0.607
Y fixed	0.367	0.468	0.314	0.668	0.543	0.266	0.23	0.582	0.614
pThr fixed	1.28	5.19	0.962	4.17	0.539	0.556	0.521	0.958	1
pTyr fixed	1.47	1.44	1.32	1.97	2.09	0.473	0.485	1.08	1.12

TRPM7, construct: aa1158-1865 (from UniProt Q96QT4)
relative phosphorylation
Details	at +1	at +2	at +3	at +4	at -1	at -2	at -3	at -4	at -5
A fixed	0.649	1.18	1.19	0.591	0.902	1.13	0.852	1.08	1.17
D fixed	0.266	0.121	0.341	0.604	0.484	0.551	0.659	0.821	0.972
E fixed	0.501	0.0976	0.256	0.561	0.489	0.576	0.836	1.07	1.05
F fixed	0.859	1.81	0.854	0.958	0.58	1.19	1.06	1.19	1.03
G fixed	0.451	0.661	0.904	0.871	0.406	1.28	0.897	1.08	1.4
H fixed	1.1	1.22	1.22	1.34	1.47	0.842	1.05	0.86	1.1
I fixed	1.26	0.601	0.42	0.781	0.46	0.446	0.686	0.668	0.532
K fixed	2.16	1.21	2.47	2.09	2.76	0.931	1.13	1.31	1.24
L fixed	1.18	0.477	0.662	0.859	0.996	0.868	1.01	0.872	0.608
M fixed	1.06	0.808	0.664	1.12	0.969	1.42	1.19	1.17	0.767
N fixed	0.54	0.445	1.11	1.16	1.25	0.857	1.48	1.09	1.2
P fixed	0.142	1.42	0.623	0.676	0.896	1.28	1.07	0.972	1.1
Q fixed	1.58	1.11	1.15	1.17	1.07	1.11	0.995	0.948	1.01
R fixed	2.14	2.06	2.52	1.61	2.11	0.975	1.36	1.17	1.29
V fixed	1.1	0.572	0.573	0.637	0.586	0.553	0.74	0.675	0.732
W fixed	0.79	1.4	0.831	1.13	0.487	2.17	1.02	1.12	0.976
Y fixed	1.22	1.81	1.21	0.852	1.08	0.822	0.954	0.884	0.811
pThr fixed	0.455	0.317	0.499	0.68	0.488	0.704	0.893	1.11	1.05
pTyr fixed	0.856	0.489	0.677	0.541	0.776	0.675	1.09	0.916	1.08

RAF1, construct: aa306-648 (from UniProt P04049)
relative phosphorylation
Details	at +1	at +2	at +3	at +4	at -1	at -2	at -3	at -4	at -5
A fixed	0.533	0.747	0.856	0.786	1.02	0.816	0.961	0.949	1.05
D fixed	0.619	0.926	0.751	0.848	1.47	0.702	0.845	1.36	1.19
E fixed	0.992	0.886	0.697	0.864	0.969	0.718	0.898	1.24	1.29
F fixed	1.25	0.618	1.36	1.23	0.587	1.25	0.8	0.698	0.914
G fixed	0.719	1.13	1.05	0.823	1.07	0.675	1.06	1.09	0.997
H fixed	0.672	1.08	1.06	1.13	1.52	1.29	1.08	1.13	1.18
I fixed	1.66	1.03	0.787	0.958	0.647	1.27	0.755	0.65	0.731
K fixed	0.544	1.15	0.73	0.985	1.14	0.9	1.36	1.11	1.35
L fixed	2.37	1	1.19	1.05	0.852	0.939	1.22	0.793	0.848
M fixed	1.78	0.846	0.963	0.966	1.09	1.02	1.07	0.835	0.788
N fixed	0.692	1.32	0.999	1.08	1.29	0.784	0.832	1.27	1.13
P fixed	0.281	1.23	0.912	0.983	0.735	1.1	0.797	0.772	1.03
Q fixed	0.762	1.22	0.892	1.06	0.93	0.846	0.996	0.878	0.86
R fixed	0.667	1.49	0.776	0.944	1.39	1.37	1.83	0.911	1.09
V fixed	0.938	1.12	0.81	0.793	0.59	1.14	0.661	0.616	0.681
W fixed	1.44	0.58	1.61	1.3	0.805	0.932	0.94	1.91	1.02
Y fixed	1.08	0.631	1.56	1.19	0.891	1.26	0.89	0.791	0.855
pThr fixed	1.05	1.62	0.758	0.819	0.77	1.06	1.1	1.24	0.992
pTyr fixed	0.626	0.898	0.911	0.692	1.61	1.72	1.07	0.994	0.98

TAOK2, construct: aa1-350 (from UniProt Q9UL54)
relative phosphorylation
Details	at +1	at +2	at +3	at +4	at -1	at -2	at -3	at -4	at -5
A fixed	0.607	0.791	0.808	0.75	0.832	0.94	0.901	0.992	1.03
D fixed	0.505	0.606	0.532	0.619	0.726	0.706	0.741	0.931	1.01
E fixed	0.496	0.483	0.501	0.593	0.566	0.621	0.725	0.92	0.888
F fixed	1.23	0.651	0.845	0.887	0.938	1.4	0.806	0.907	0.896
G fixed	0.606	0.697	0.953	0.937	1.45	1.13	1.34	1.14	1.13
H fixed	0.855	0.993	0.924	1.04	1.28	1.01	1.06	1.08	1.06
I fixed	1.47	0.723	0.761	0.763	0.561	0.703	0.642	0.746	0.73
K fixed	0.753	2.65	2	1.72	1.11	0.981	2.14	1.46	1.45
L fixed	1.49	0.644	0.807	0.778	1.1	0.709	0.672	0.781	0.767
M fixed	1.49	0.734	0.735	0.764	1.26	0.978	0.828	0.857	0.827
N fixed	0.64	1.24	0.876	0.845	1.16	0.972	0.944	1.1	1.05
P fixed	0.589	0.76	0.906	0.834	0.667	0.876	0.777	0.965	0.969
Q fixed	0.727	0.884	0.838	0.949	0.851	0.896	1	1.01	0.977
R fixed	0.778	2.81	2.84	2.19	1.27	1.1	1.59	1.28	1.38
V fixed	1.09	0.812	0.753	0.738	0.583	0.731	0.672	0.818	0.889
W fixed	2.32	0.69	1.04	1.35	1.1	1.08	1.02	1	0.986
Y fixed	1.35	0.835	0.873	1.24	1.54	2.16	1.13	1.01	0.96
pThr fixed	0.639	0.557	0.614	0.55	0.605	0.742	0.817	0.964	1
pTyr fixed	0.577	0.54	0.626	0.609	1.27	0.822	0.909	1.03	1.1
